Peptide exchange data for 83 substances are collected here from patent US11891427B2, “Amidated peptides and their deamidated counterparts displayed by non-HLA-a*02 for use in immunotherapy against different types of cancers” (Immatics Biotechnologies GmbH, priority 2020, dated 2024).

In one assay the target is HLA-A*01:01 (Homo sapiens, UniProt P04439, A114D/A174V/A182V/D101N/D185E/E176A/E190D/L180R/Q94H/R68K/S129P/T187R/V100A/V91M/W191G). Briefly: MHC binding assay (UV-ligand exchange, beta2m ELISA). Conditions: binding to HLA-A*01:01, ranged by peptide exchange yield. The source says:
(§1) Candidate peptides for T cell based therapies according to the present invention were further tested for their MHC binding capacity (affinity). The individual peptide-MHC complexes were produced by UV-ligand exchange, where a UV-sensitive peptide is cleaved upon UV-irradiation and exchanged with the peptide of interest as analyzed. Only peptide candidates that can effectively bind and stabilize the peptide-receptive MHC molecules prevent dissociation of the MHC complexes. To determine the yield of the exchange reaction, an ELISA was performed based on the detection of the light chain (β2m) of stabilized MHC complexes. The assay was performed as generally described in Rodenko et al. (Rodenko et al., 2006).
(§2) 96 well MAXISorp plates (NUNC) were coated over night with 2 μg/ml streptavidin in PBS at room temperature, washed 4× and blocked for 1 h at 37° C. in 2% BSA containing blocking buffer. Refolded HLA-A*02:01/MLA-001 monomers served as standards, covering the range of 15-500 ng/ml. Peptide-MHC monomers of the UV-exchange reaction were diluted 100-fold in blocking buffer. Samples were incubated for 1 h at 37° C., washed four times, incubated with 2 μg/ml HRP conjugated anti-β2m for 1 h at 37° C., washed again and detected with TMB solution that is stopped with […]. Absorption was measured at 450 nm. Candidate peptides that show a high exchange yield (preferably higher than 50%, most preferred higher than 75%) are generally preferred for a generation and production of antibodies or fragments thereof, and/or T cell receptors or fragments thereof, as they show sufficient avidity to the MHC molecules and prevent dissociation of the MHC complexes.
In general terms: In an ELISA, binding on a coated surface is turned into a signal by an enzyme label.
For 86 (ILPDITTTY) [compound 86], the Peptide exchange entry is reported as “++ (≥20% = ++)”. On the same count and under the same terms, next, 91 (GVDDTSLLY) [compound 91]: “++++ (≥75% = ++++)”.

In the case of 87 (ITDDTVQTY) [compound 87], the Peptide exchange result is given as “++++ (≥75% = ++++)”. The same measure, in the same setting: the result for 10 (QVDGSLLVI) [compound 10] reads “++ (≥20% = ++)”; that for 83 (TFVDASRTLY) [compound 83], “++++ (≥75% = ++++)”.

Consider 82 (VTDVTEEHY) [compound 82], for which the Peptide exchange result was “++++ (≥75% = ++++)”. Take 84 (EVEGVIDGTYDY) [compound 84]: the Peptide exchange result is recorded as “++++ (≥75% = ++++)”. The same measure, in the same setting: next, 88 (WLDRSTILY) [compound 88]: “++++ (≥75% = ++++)”; 79 (FTDTSSYEY) [compound 79]: “++++ (≥75% = ++++)”.

With 94 (YSIDVTNVM) [compound 94], the Peptide exchange entry is “+++ (≥50% = +++)”.

Take 50 (RSIDVTGQGF) [compound 50]: the Peptide exchange result is listed as “++ (≥20% = ++)”. The same measure, in the same setting: next, 13 (TANYDTSHY) [compound 13]: “++ (≥20% = ++)”; 92 (GQYDDSLQAY) [compound 92]: “++ (≥20% = ++)”.

Consider 11 (NHITDTSLNLF) [compound 11], for which the Peptide exchange entry is recorded as “++ (≥20% = ++)”. Same read-out and setting: next, 12 (ITDTSLNLF) [compound 12]: “++++ (≥75% = ++++)”. The same measure, in the same setting: next, 89 (HVSDVTVNY) [compound 89]: “++ (≥20% = ++)”; 85 (EVQDHSTSSY) [compound 85]: “++ (≥20% = ++)”; 81 (VTETMGIDGSAY) [compound 81]: “++++ (≥75% = ++++)”. As for 20 (TSDTSQYDTY) [compound 20], the Peptide exchange result is reported as “+++ (≥50% = +++)”. On the same count and under the same terms, next, 37 (RSLDCTVKTY) [compound 37]: “+++ (≥50% = +++)”; 18 (GTDKQDSTLRY) [compound 18]: “++++ (≥75% = ++++)”; 7 (VTRDDTASY) [compound 7]: “++ (≥20% = ++)”. On the same count and under the same terms, the result for 33 (ISDGMDSSAHY) [compound 33] reads “++++ (≥75% = ++++)”; that for 34 (LSDLSLADI) [compound 34], “++ (≥20% = ++)”; that for 59 (ILFSDSTRLSF) [compound 59], “+++ (≥50% = +++)”.

For 4 (YIDDVTLI) [compound 4], the Peptide exchange result is “++ (≥20% = ++)”. The same measure, in the same setting: next, 25 (FTDLITDESINY) [compound 25]: “++++ (≥75% = ++++)”. The same measure, in the same setting: the result for 93 (HADLTTLTF) [compound 93] reads “++ (≥20% = ++)”; that for 58 (GTDQTGKGLEY) [compound 58], “+++ (≥50% = +++)”.

On to 60 (HVKDATMGY) [compound 60], for which the Peptide exchange result is on record as “+++ (≥50% = +++)”.

In the case of 19 (MTDVDRDGTTAY) [compound 19], the Peptide exchange result is “++++ (≥75% = ++++)”. On the same count and under the same terms, next, 6 (ISDITEKNSGLY) [compound 6]: “++++ (≥75% = ++++)”. Still for that read-out and setting: next, 16 (VTQDDTGFY) [compound 16]: “++++ (≥75% = ++++)”; 80 (LTNDQTLRL) [compound 80]: “+++ (≥50% = +++)”; 51 (RVDDITDQF) [compound 51]: “++ (≥20% = ++)”. Still for that read-out and setting: the result for 52 (LTEVEKDATALY) [compound 52] reads “++++ (≥75% = ++++)”. With 90 (HVDNSNLNY) [compound 90], the Peptide exchange entry is listed as “++++ (≥75% = ++++)”. Consider 49 (PSDGSMHNY) [compound 49], for which the Peptide exchange entry was “++++ (≥75% = ++++)”.

A further assay deals with HLA-B*44:05 (Homo sapiens, UniProt P01889, A223V/A65T/A93T/A95T/D201E/D98Y/E176V/E187L/E204Q/E69K/G107R/H137Y/K202T/L105A/L119I/N104T/N87E/Q56L/Q94N/R106L/R155S/R180D/S101N/S121R/S35A/S48T/T118I/V36M/W191S/Y91S). The assay is described as above. To be noted: binding to HLA-B*44:05, ranged by peptide exchange yield.
Excerpt: as §1, §2
As for 73 (DESKYTWSW) [compound 73], the Peptide exchange result was “++++ (≥75% = ++++)”. On to 75 (QEVDISLHY) [compound 75], for which the Peptide exchange entry is reported as “++++ (≥75% = ++++)”. Still for that read-out and setting: the result for 108 (DETHTLQF) [compound 108] reads “++++ (≥75% = ++++)”. On the same count and under the same terms, next, 78 (DETIWYVRF) [compound 78]: “++++ (≥75% = ++++)”; 77 (KPREEQYDSTY) [compound 77]: “++++ (≥75% = ++++)”; 111 (GEYRCQTDL) [compound 111]: “++++ (≥75% = ++++)”.

Consider 112 (AEFFDYTVRTL) [compound 112], for which the Peptide exchange entry is “++++ (≥75% = ++++)”. The same measure, in the same setting: the result for 15 (TEGDFTKEASTY) [compound 15] reads “+++ (≥50% = +++)”. On the same count and under the same terms, the result for 74 (LENMYDLTF) [compound 74] reads “++++ (≥75% = ++++)”. Same read-out and setting: the result for 46 (KEVDDTLLVNEL) [compound 46] reads “++++ (≥75% = ++++)”; that for 113 (TDFTKIASF) [compound 113], “++++ (≥75% = ++++)”.

On to 44 (KENQDHSYSL) [compound 44], for which the Peptide exchange entry is “++++ (≥75% = ++++)”. The same measure, in the same setting: next, 110 (AESLAVHDI) [compound 110]: “+++ (≥50% = +++)”; 109 (DETAAYKIM) [compound 109]: “+++ (≥50% = +++)”.

A further assay addresses HLA-A*24:02 (Homo sapiens, UniProt P04439, D101N/D140Y/D185E/E176V/E190D/F33S/G103R/G107R/I119L/I121M/I306V/K335N/L105A/L180Q/L300P/N151K/N90K/Q86E/Q94H/R106L/R138H/R89G/T104I/T345S/V100E/W191G/Y123F). Described as above. To be noted: binding to HLA-A*24:02, ranged by peptide exchange yield.
Excerpt: as §1, §2
Take 45 (YFVDVTTRI) [compound 45]: the Peptide exchange entry is “+++ (≥50% = +++)”. Still for that read-out and setting: next, 38 (KLTDNSNQF) [compound 38]: “++ (≥20% = ++)”; 24 (FYDNSVIIF) [compound 24]: “++ (≥20% = ++)”; 36 (YWDETLKEF) [compound 36]: “+++ (≥50% = +++)”.

In the case of 55 (VYTDISHHF) [compound 55], the Peptide exchange entry was “++++ (≥75% = ++++)”. On the same count and under the same terms, the result for 99 (VYVDTTELAL) [compound 99] reads “++++ (≥75% = ++++)”; that for 69 (KSYHDQTISF) [compound 69], “++++ (≥75% = ++++)”; that for 76 (TYLPTDASLSF) [compound 76], “++++ (≥75% = ++++)”. On the same count and under the same terms, the result for 26 (IYPDASLLIQNI) [compound 26] reads “++++ (≥75% = ++++)”; that for 57 (FYDLSIQSF) [compound 57], “++++ (≥75% = ++++)”. For 96 (IFVPTDRSL) [compound 96], the Peptide exchange result is recorded as “++ (≥20% = ++)”.

Consider 68 (VFDETKNLL) [compound 68], for which the Peptide exchange entry is listed as “++ (≥20% = ++)”. On the same count and under the same terms, the result for 65 (IYQFARLDY) [compound 65] reads “++ (≥20% = ++)”; that for 104 (HLFYDVTVF) [compound 104], “++ (≥20% = ++)”.

Regarding 98 (AFDKTIVKL) [compound 98], the Peptide exchange entry was “++ (≥20% = ++)”. Same read-out and setting: the result for 100 (EYQDFSTLF) [compound 100] reads “++++ (≥75% = ++++)”; that for 23 (SYDETKIKF) [compound 23], “+ (≥10% = +)”. Still for that read-out and setting: the result for 43 (FFTDKTLSF) [compound 43] reads “++++ (≥75% = ++++)”; that for 101 (VYLDASKVPGF) [compound 101], “++++ (≥75% = ++++)”; that for 2 (FFQDSTFSF) [compound 2], “++++ (≥75% = ++++)”. The same measure, in the same setting: the result for 54 (QYQDTTVSF) [compound 54] reads “+++ (≥50% = +++)”.

67 (QAIDLSLNF) [compound 67]: the Peptide exchange entry is reported as “++ (≥20% = ++)”. With 64 (FHYDDTAGYF) [compound 64], the Peptide exchange entry was “+ (≥10% = +)”. On the same count and under the same terms, the result for 9 (IFDETGRF) [compound 9] reads “++ (≥20% = ++)”; that for 66 (YHDQTISF) [compound 66], “+ (≥10% = +)”.

With 1 (VHDFTLPSW) [compound 1], the Peptide exchange entry is “++ (≥20% = ++)”. On the same count and under the same terms, next, 95 (VYIDDSVEL) [compound 95]: “++++ (≥75% = ++++)”. Still for that read-out and setting: next, 103 (RQDESYLNF) [compound 103]: “++ (≥20% = ++)”; 97 (RYVNDYTNSF) [compound 97]: “++++ (≥75% = ++++)”; 5 (GYIDDVTLI) [compound 5]: “+++ (≥50% = +++)”. On the same count and under the same terms, the result for 102 (IYPDGTLLI) [compound 102] reads “++++ (≥75% = ++++)”.
